Measurements reported in article PMC9797636, “Transcriptomic and enzymatic analysis reveals the roles of glutamate dehydrogenase in Corynebacterium glutamicum” (AMB Express, 2022).

Key:
Experiment in all cases: purified protein
Format in all cases: biochemical, Corynebacterium glutamicum
purified protein [1] = substrate: NC(=O)C1=CN([C@@H]2O[C@H](COP(=O)(O)OP(=O)(O)OC[C@H]3O[C@@H](n4cnc5c(N)ncnc54)[C@H](OP(=O)(O)O)[C@@H]3O)[C@@H](O)[C@H]2O)C=CC1; conditions: reductive amination, 2-oxoglutarate, NH4Cl, Tris-HCl pH 7.0, 25 °C, pH 7.0
purified protein [2] = substrate: NC(=O)c1ccc[n+]([C@@H]2O[C@H](COP(=O)(O)OP(=O)(O)OC[C@H]3O[C@@H](n4cnc5c(N)ncnc54)[C@H](OP(=O)(O)O)[C@@H]3O)[C@@H](O)[C@H]2O)c1; conditions: oxidative deamination, L-glutamate, Tris-HCl, 25 °C
purified protein [3] = substrate: O=C(O)CCC(=O)C(=O)O; conditions: reductive amination, NADPH, NH4Cl, Tris-HCl pH 7.0, 25 °C, pH 7.0

B1: GdhA (Corynebacterium glutamicum ATCC 13032) (protein)
chain: MTVDEQVSNYYDMLLKRNAGEPEFHQAVAEVLESLKIVLEKDPHYADYGLIQRLCEPERQLIFRVPWVDDQGQVHVNRGFRVQFNSALGPYKGGLRFHPSVNLGIVKFLGFEQIFKNSLTGLPIGGGKGGSDFDPKGKSDLEIMRFCQSFMTELHRHIGEYRDVPAGDIGVGGREIGYLFGHYRRMANQHESGVLTGKGLTWGGSLVRTEATGYGCVYFVSEMIKAKGESISGQKIIVSGSGNVATYAIEKAQELGATVIGFSDSSGWVHTPNGVDVAKLREIKEVRRARVSVYADEVEGATYHTDGSIWDLKCDIALPCATQNELNGENAKTLADNGCRFVAEGANMPSTPEAVEVFRERDIRFGPGKAANAGGVATSALEMQQNASRDSWSFEYTDERLQVIMKNIFKTCAETAAEYGHENDYVVGANIAGFKKVADAMLAQGVI
Km (purified protein [1]): 166 µM
Vmax (purified protein [1]): 1.54 µmol/min/mg
kcat (purified protein [1]): 0.257 s⁻¹
kcat/Km (purified protein [1]): 1540 M⁻¹ s⁻¹
Km (purified protein [2]): 505 µM
Vmax (purified protein [2]): 1.34 µmol/min/mg
kcat (purified protein [2]): 0.224 s⁻¹
kcat/Km (purified protein [2]): 443 M⁻¹ s⁻¹
Km (purified protein [3]): 2534 µM
Vmax (purified protein [3]): 0.809 µmol/min/mg
kcat (purified protein [3]): 0.135 s⁻¹
kcat/Km (purified protein [3]): 53.2 M⁻¹ s⁻¹
